Measurements from publication PMC5024299.

Tested on: Pho4 (Saccharomyces cerevisiae)
Experiment: SELMAP (microfluidic SELEX-seq)
Conditions: last round; On-chip SELMAP: 71-bp dsDNA library (20 ul, 50 uM) flowed 20 min over immobilised TF, MITOMI trapping, DNase 200 U/mL, PBS wash; binding buffer, pH and …

“Pho4 consensus 6-mer CACGTG in 12-mer library” was tested, and the binding signal (frequency ratio score) was 220.
